The values below come from patent US20230265151A1, “GIP/GLP1 CO-AGONIST COMPOUNDS” (priority 2020, published 2023).

Sequences and labels used below:
T1: human GIP receptor (human, UniProt P48546 22-466)
T1 sequence (looked up): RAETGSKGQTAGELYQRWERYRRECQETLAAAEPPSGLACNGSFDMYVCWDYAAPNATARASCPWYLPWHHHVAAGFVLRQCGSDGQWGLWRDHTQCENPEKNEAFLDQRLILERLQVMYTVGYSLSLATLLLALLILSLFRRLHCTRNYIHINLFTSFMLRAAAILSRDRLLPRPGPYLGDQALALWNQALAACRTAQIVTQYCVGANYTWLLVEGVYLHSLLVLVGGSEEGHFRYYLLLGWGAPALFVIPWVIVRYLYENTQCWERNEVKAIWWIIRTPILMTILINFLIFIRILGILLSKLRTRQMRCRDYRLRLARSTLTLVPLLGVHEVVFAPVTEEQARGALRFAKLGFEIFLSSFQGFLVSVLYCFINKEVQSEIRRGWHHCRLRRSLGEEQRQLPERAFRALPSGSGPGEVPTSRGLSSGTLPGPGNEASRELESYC

B1: Y-Aib-EGT-αMeF(2F)-TSD-4Pal-SI-αMeL-LD-Orn-K((2-[2-(2-Amino-ethoxy)-ethoxy]-acetyl)2-(γ-Glu)-CO-(CH2)12-CO2H)AQ-Aib-E-(3ClPhe)-I-(D-Glu)-αMeY-LIEGGK((2-[2-(2-Am … (peptide)
peptide: YXEGTXTSDXSIXLDXKAQXEXIXXLIEGGKSSGAPPPS
modifications: Aib2, αMeF(2F)6, 4Pal10, αMeL13, Orn16, Aib20, 3ClPhe22, D-Glu24, αMeY25; acylated K17, K31 (groups as in name); C-terminal amide
B2: Y-Aib-EGT-αMeF(2F)-TSD-4Pal-SI-αMeL-LD-Orn-K((2-[2-(2-Amino-ethoxy)-ethoxy]-acetyl)2-(γ-Glu)-CO-(CH2)12-CO2H)AQ-Aib-E-3,5FPhe-I-(D-Glu)-αMeY-LIEGGK((2-[2-(2-Ami … (peptide)
peptide: B1 peptide
modifications: Aib2, αMeF(2F)6, 4Pal10, αMeL13, Orn16, Aib20, 3,5FPhe22, D-Glu24, αMeY25; acylated K17, K31 (groups as in name); C-terminal amide
B3: Y-Aib-EGT-αMeF(2F)-TSD-αMeF(2F)-SI-αMeL-LD-Orn-K((2-[2-(2-Amino-ethoxy)-ethoxy]-acetyl)2-(γ-Glu)-CO-(CH2)12-CO2H)AQ-Aib-EFI-(D-Glu)-αMeY-LIEGGK((2-[2-(2-Amino-e … (peptide)
peptide: B1 peptide with X22F
modifications: Aib2, αMeF(2F)6, αMeF(2F)10, αMeL13, Orn16, Aib20, D-Glu24, αMeY25; acylated K17, K31 (groups as in name); C-terminal amide
B4: Y-Aib-EGT-αMeF(2F)-TSD-4Pal-SI-αMeL-LD-Orn-K((2-[2-(2-Amino-ethoxy)-ethoxy]-acetyl)2-(γ-Glu)-CO-(CH2)12-CO2H)AQ-Aib-E-(2FPhe)-I-(D-Glu)-αMeY-LIEGGK((2-[2-(2-Ami … (peptide)
peptide: B1 peptide
modifications: Aib2, αMeF(2F)6, 4Pal10, αMeL13, Orn16, Aib20, 2FPhe22, D-Glu24, αMeY25; acylated K17, K31 (groups as in name); C-terminal amide
B5: Y-Aib-EGT-αMeF(2F)-TSD-4Pal-Aib-I-αMeL-LD-Orn-K((2-[2-(2-Amino-ethoxy)-ethoxy]-acetyl)2-(γ-Glu)-CO-(CH2)12-CO2H)AQ-Aib-EFI-(D-Glu)-αMeY-LIEGGK((2-[2-(2-Amino-et … (peptide)
peptide: B1 peptide with S11X, X22F
modifications: Aib2, αMeF(2F)6, 4Pal10, Aib11, αMeL13, Orn16, Aib20, D-Glu24, αMeY25; acylated K17, K31 (groups as in name); C-terminal amide
B6: Y-Aib-EGT-αMeF(2F)-TSDVSI-αMeL-LD-Orn-K((2-[2-(2-Amino-ethoxy)-ethoxy]-acetyl)2-(γ-Glu)-CO-(CH2)12-CO2H)AQ-Aib-E-αMeF-I-(D-Glu)-αMeY-LIEGGK((2-[2-(2-Amino-ethox … (peptide)
peptide: B1 peptide with X10V
modifications: Aib2, αMeF(2F)6, αMeL13, Orn16, Aib20, αMeF22, D-Glu24, αMeY25; acylated K17, K31 (groups as in name); C-terminal amide
B7: Y-Aib-EGT-αMeF(2F)-TSD-4Pal-SI-αMeL-LD-Orn-K((2-[2-(2-Amino-ethoxy)-ethoxy]-acetyl)2-(γ-Glu)-CO-(CH2)12-CO2H)AQ-Aib-E-3FPhe-I-(D-Glu)-αMeY-LIEGGK((2-[2-(2-Amino … (peptide)
peptide: B1 peptide
modifications: Aib2, αMeF(2F)6, 4Pal10, αMeL13, Orn16, Aib20, 3FPhe22, D-Glu24, αMeY25; acylated K17, K31 (groups as in name); C-terminal amide
B8: Y-Aib-EGT-αMeF(2F)-TSDVSI-αMeL-LD-Orn-K((2-[2-(2-Amino-ethoxy)-ethoxy]-acetyl)2-(γ-Glu)-CO-(CH2)12-CO2H)AQ-Aib-EFI-(D-Glu)-αMeY-LIEGGK((2-[2-(2-Amino-ethoxy)-et … (peptide)
peptide: B1 peptide with X10V, X22F
modifications: Aib2, αMeF(2F)6, αMeL13, Orn16, Aib20, D-Glu24, αMeY25; acylated K17, K31 (groups as in name); C-terminal amide
B9: Y-Aib-EGT-αMeF(2F)-TSD-4Pal-SI-αMeL-LD-Orn-K((2-[2-(2-Amino-ethoxy)-ethoxy]-acetyl)2-(γ-Glu)-CO-(CH2)12-CO2H)AQ-Aib-E-αMeF(2F)-I-(D-Glu)-αMeY-LIEGGK((2-[2-(2-Am … (peptide)
peptide: B1 peptide
modifications: Aib2, αMeF(2F)6, 4Pal10, αMeL13, Orn16, Aib20, αMeF(2F)22, D-Glu24, αMeY25; acylated K17, K31 (groups as in name); C-terminal amide
B10: Y-Aib-EGT-αMeF(2F)-TSD-4Pal-SI-αMeL-LD-Orn-K((2-[2-(2-Amino-ethoxy)-ethoxy]-acetyl)2-(γ-Glu)-CO-(CH2)12-CO2H)AQ-Aib-E-1Nal-I-(D-Glu)-αMeY-LIEGGK((2-[2-(2-Amino- … (peptide)
peptide: B1 peptide
modifications: Aib2, αMeF(2F)6, 4Pal10, αMeL13, Orn16, Aib20, 1Nal22, D-Glu24, αMeY25; acylated K17, K31 (groups as in name); C-terminal amide

Changes are numbered by the printed parent chain. *1 amine or outer side, *2 acyl side, *3 side chain or, on linkers, in order; H or OH if unused. Where no end group is shown, it is not given here. Side-chain parts run from the residue outwards. [ ]: non-standard residue; d: D form. The star is where a group is joined. αMePhe(2-F) = C[C@](N)(Cc1ccccc1F)C(=O)O; γGlu = O=C(O)[C@H](CCC(=O)[*:2])N[*:1]; C14 diacid = O=C(O)CCCCCCCCCCCCC(=O)*; αMeY = C[C@](N)(Cc1ccc(O)cc1)C(=O)O; αMeF = C[C@](N)(Cc1ccccc1)C(=O)O; αMeL = CC(C)C[C@](C)(N)C(=O)O; Orn = NCCC[C@H](N)C(=O)O; AEEA = NCCOCCOCC(=O)O; Aib = CC(C)(N)C(=O)O A value given as a limit tells only on which side of the number the result lay.

For one assay, the target named is human glucagon receptor (human, UniProt P47871 26-477). As to the kind of experiment: cell-based or functional assay.
For the molecule B1, the “cAMP EC50 (1.0% HSA)” value was more than 9950 nM.

Consider B2, for which the “cAMP EC50 (1.0% HSA)” value was more than 9950 nM.

Turning to B3, the “cAMP EC50 (1.0% HSA)” value is more than 9950 nM.

Turning to B4, the “cAMP EC50 (1.0% HSA)” value is more than 9950 nM.

Regarding B5, the “cAMP EC50 (1.0% HSA)” value was more than 9950 nM.

Regarding B6, the “cAMP EC50 (1.0% HSA)” value is more than 9950 nM.

With B7, the “cAMP EC50 (1.0% HSA)” value is more than 9950 nM.

Take B8: the “cAMP EC50 (1.0% HSA)” value is more than 9950 nM.

Turning to B9, the “cAMP EC50 (1.0% HSA)” value was more than 9950 nM.

Take B10: the “cAMP EC50 (1.0% HSA)” value is more than 9950 nM.

Y[Aib]EGT[αMePhe(2-F)]TSDV[Aib]I[αMeL]LD[Orn]K([AEEA-AEEA-γGlu-C14 diacid])AQ[Aib]E[αMeF]I[dE][αMeY]LIEGGK([AEEA-AEEA-γGlu-C14 diacid])SSGAPPPS-NH2: the “cAMP EC50 (1.0% HSA)” value was more than 9950 nM.

The next assay addresses T1, human GIP receptor. The experiment in a line: cell-based or functional assay.
Regarding B1, the “cAMP EC50 (1.0% HSA)” value was found to be 1.27 nM.

On to B2, for which the “cAMP EC50 (1.0% HSA)” value turned out to be 1.05 nM.

In the case of B3, the “cAMP EC50 (1.0% HSA)” value came to 4.84 nM.

Regarding B4, the “cAMP EC50 (1.0% HSA)” value is 0.771 nM.

For the molecule B5, the “cAMP EC50 (1.0% HSA)” value worked out at 1.49 nM and the “cAMP Emax (1.0% HSA)” value amounted to 94.2%.

As to B6, the “cAMP EC50 (1.0% HSA)” value turned out to be 2.64 nM and the “cAMP Emax (1.0% HSA)” value stood at 102%.

For the molecule B7, the “cAMP EC50 (1.0% HSA)” value is 0.986 nM and the “cAMP Emax (1.0% HSA)” value was found to be 90.5%.

Consider B8, for which the “cAMP EC50 (1.0% HSA)” value amounted to 3.81 nM and the “cAMP Emax (1.0% HSA)” value is 104%.

Consider B9, for which the “cAMP EC50 (1.0% HSA)” value was 0.591 nM and the “cAMP Emax (1.0% HSA)” value came out at 80.3%.

For the molecule B10, the “cAMP EC50 (1.0% HSA)” value turned out to be 0.787 nM and the “cAMP Emax (1.0% HSA)” value was 90.6%.

For the molecule Y[Aib]EGT[αMePhe(2-F)]TSDV[Aib]I[αMeL]LD[Orn]K([AEEA-AEEA-γGlu-C14 diacid])AQ[Aib]E[αMeF]I[dE][αMeY]LIEGGK([AEEA-AEEA-γGlu-C14 diacid])SSGAPPPS-NH2, the “cAMP EC50 (1.0% HSA)” value stood at 5.58 nM and the “cAMP Emax (1.0% HSA)” value came out at 92%.

In a further assay the target is human GLP-1 receptor (human, UniProt P43220 24-463). The experiment in a line: cell-based or functional assay.
In the case of B1, the “cAMP EC50 (1.0% HSA)” value was 34 nM and the “cAMP Emax (1.0% HSA)” value came out at 85.8%.

For the molecule B2, the “cAMP EC50 (1.0% HSA)” value stood at 25.5 nM and the “cAMP Emax (1.0% HSA)” value was 104%.

Turning to B3, the “cAMP EC50 (1.0% HSA)” value worked out at 80 nM.

Take B4: the “cAMP EC50 (1.0% HSA)” value worked out at 47.6 nM and the “cAMP Emax (1.0% HSA)” value is 98%.

Regarding B5, the “cAMP EC50 (1.0% HSA)” value is 27.7 nM and the “cAMP Emax (1.0% HSA)” value was determined as 108%.

Turning to B6, the “cAMP EC50 (1.0% HSA)” value came to 76.8 nM and the “cAMP Emax (1.0% HSA)” value was 108%.

For the molecule B7, the “cAMP EC50 (1.0% HSA)” value came to 27 nM and the “cAMP Emax (1.0% HSA)” value amounted to 87.8%.

As to B8, the “cAMP EC50 (1.0% HSA)” value came to 23.4 nM and the “cAMP Emax (1.0% HSA)” value was 96.6%.

Turning to B9, the “cAMP EC50 (1.0% HSA)” value was 209 nM.

On to B10, for which the “cAMP EC50 (1.0% HSA)” value is 27 nM and the “cAMP Emax (1.0% HSA)” value was 93%.

For the molecule Y[Aib]EGT[αMePhe(2-F)]TSDV[Aib]I[αMeL]LD[Orn]K([AEEA-AEEA-γGlu-C14 diacid])AQ[Aib]E[αMeF]I[dE][αMeY]LIEGGK([AEEA-AEEA-γGlu-C14 diacid])SSGAPPPS-NH2, the “cAMP EC50 (1.0% HSA)” value came to 66 nM.
